From paper PMC3961392 (PLoS Pathogens, 2014)
Where a chain is given by its changes, count along the chain named. In names and notes the source's numbering stands.

B1: APOBEC3F (enzyme, human, UniProt Q8IUX4 1-373, looked up)
chain: MKPHFRNTVERMYRDTFSYNFYNRPILSRRNTVWLCYEVKTKGPSRPRLDAKIFRGQVYSQPEHHAEMCFLSWFCGNQLPAYKCFQITWFVSWTPCPDCVAKLAEFLAEHPNVTLTISAARLYYYWERDYRRALCRLSQAGARVKIMDDEEFAYCWENFVYSEGQPFMPWYKFDDNYAFLHRTLKEILRNPMEAMYPHIFYFHFKNLRKAYGRNESWLCFTMEVVKHHSPVSWKRGVFRNQVDPETHCHAERCFLSWFCDDILSPNTNYEVTWYTSWSPCPECAGEVAEFLARHSNVNLTIFTARLYYFWDTDYQEGLRSLSQEGASVEIMGYKDFKYCWENFVYNDDEPFKPWKGLKYNFLFLDSKLQEILE
notes: also called A3F; not shown: GST, N-terminal, cleaved
B2: APOBEC3F NGM mutant (enzyme, human, UniProt Q8IUX4 1-373, looked up)
chain: B1 chain with P191G
notes: also called A3F NGM; A3F 190NGM192; not shown: GST, N-terminal, cleaved

Assays:
[1] = target: the molecule itself; test: SEC; 10-15 µg of purified enzyme (low enzyme concentration) on a 10 mL Superdex 200 column; 50 mM Tris pH 7.5, 200 mM NaCl; masses and oligomerization states from a Bio-Rad gel filtration standard curve
[2] = target: the molecule itself; test: SEC; data not shown; oligomerization state of the mutant enzymes, method as told for the A3 enzymes (Superdex 200, 50 mM Tris pH 7.5, 200 mM NaCl)

Protein	stoichiometry N [1]	stoichiometry N [2]
B1	4	–
B2	–	4
